Experimental data as given in the RNAGym collection of RNA variant scans (doi:10.7554/elife.90254).

B1: LINE1-full (parent)
chain: UACGUAGGUGGUUUUCCCCUGAUAGUGCUAAGGGGGCCUGGAAGUUUGGACUGGGCAGAGCUCAACACAGCGUGGCAAAGUGGCUGUGGCUAGACUGCCUCUCUGGAUUCCUCGUCACUCAGCAGGGCAUCUCUGAGAGAAAUGCC

Variants of: B1
Test: self-cleavage, relative activity (ratio to wild type); higher = more cleavage; in vitro, sequencing; the parent is a self-cleaving ribozyme

Row | Variant | self-cleavage
1 | C51U U62C | 0.05
2 | A43C A136U | 1.64
3 | G10A U23C | 1.49
4 | G33U U104A | 0.93
5 | A77G U81A | 2.73
6 | U46C U104C | 1.96
7 | U15C C17U | 1.03
8 | U15C C17G | 1.13
9 | U81C A129U | 1.48
10 | G49A A79G | 0.97
11 | A65G A78U | 0.03
12 | A65U A67G | 0.15
13 | C3U A50G | 0.33
14 | U104C C133U | 1.72
15 | C63U A140G | 0.25
16 | U12G C116U | 0.62
17 | A2U U46C | 1.76
18 | G7C A129U | 1.17
19 | U29C A124G | 1.02
20 | U5A U20A | 1.12
21 | C16U A129U | 1.36

Row | Variant | self-cleavage
22 | U12C C18U | 1.28
23 | U15C U91C | 0.77
24 | A77G C99U | 1.01
25 | G35A A140G | 0.81
26 | U39C A65U | 0.12
27 | U26A U73C | 1.15
28 | G27U U39C | 0.63
29 | G55C A107U | 0.08
30 | U52A A129U | 1.73
31 | G44U U130A | 1.99
32 | A57C U119A | 0.06
33 | G44A A67G | 0.37
34 | C111U U115C | 1.55
35 | A124G A140G | 0.24
36 | G58U A78G | 0.03
37 | G82A G126U | 2.04
38 | A94U C101U | 0.31
39 | A69G U104C | 0.71
40 | A24G U26C | 0.97
41 | C19U G40A | 1
42 | U104C A141G | 1.69

Row | Variant | self-cleavage
43 | U73A U115C | 1.9
44 | C3U U45A | 0.93
45 | G4C | 1.17
46 | U12G A77G | 1.41
47 | U73C G125U | 2.15
48 | U87G A142G | 0.25
49 | C38U C61G | 0.02
50 | C66U U130C | 0.05
51 | U26C U130G | 1.61
52 | A65G A69U | 0.07
53 | U102C A124C | 2.04
54 | U102C A124U | 1.14
55 | A121C | 1.51
56 | C38U A57U | 0.15
57 | U13C C145A | 1.6
58 | G10U C145A | 1
59 | G8C A142G | 1.21
60 | A64C U81C | 0.38
61 | A31G U108C | 1.26
62 | A6U A59C | 0.74
63 | A43G U143G | 1.42

Row | Variant | self-cleavage
64 | A107U A121G | 1.62
65 | U62C A129C | 0.19
66 | A42U A129G | 1.34
67 | A94U U104A | 0.19
68 | A69U U130C | 0.05
69 | G49A A77U | 0.86
70 | G53A U81C | 0.67
71 | C113U A140G | 0.69
72 | U39A G135U | 1.99
73 | A64C U143A | 0.25
74 | C19U G75A | 1.11
75 | U45C U85A | 0.12
76 | A69C A117G | 0.11
77 | A107G U119G | 0.84
78 | G53U | 1.25
79 | G32A G55U | 0.32
80 | U26G A138G | 1.21
81 | A67G A136C | 0.38
82 | A31G C113U | 1.03
83 | C63A U87C | 0.06
